This is an account of results in PMC4442108, “Preclinical Validation of the Heparin-Reactive Peptide p5+14 as a Molecular Imaging Agent for Visceral Amyloidosis” (Molecules, 2015).

By EC50 is commonly meant the concentration giving half of the maximal effect.

Where no end group is shown, it is not given here. The star is where a group is joined. 125I = [125I]*

A short description of data set [1]: Dynamic PET/CT pharmacokinetics of 124I-p5+14 in WT mice. The data set is classed as in vivo, mouse (WT). Particulars: post injection. Here is the method:
Dynamic PET imaging required radioiodination of the peptide with positron emitter, Iodine-124 (^124I; IBA Molecular, Sterling, WV, USA). Peptide p5+14 was radiolabeled using the Iodogen (Piercechemical, Rockford, IL, USA) oxidation method, as described. Briefly, 10 µL of 0.5 M NaPO4 buffer pH 7.6 was added to a 1.5 mL microcentrifuge tube followed by addition of ~50 µL of ^124I (~2 mCi). One µL of 2 mg/mL fresh ascorbic acid solution in phosphate buffered saline (PBS) was added to ensure complete reduction of ^124I-iodine. Approximately 25 µL (~50 µg) of peptide dissolved in distilled H2O was mixed with ~75 µL of PBS and added to the reaction mixture. Seven µL of 1 mg/mL Iodogen dissolved in acetonitrile was added to initiate the reaction. After 2 min, the reaction was quenched by addition of 50 µL of 2 mg/mL ascorbic acid. Twenty µL of blue dextran and 50 µL of filtered (0.2 µm pore sized) 0.1% gelatin in PBS were added to the reaction mixture. Radiolabeled product was separated from free ^124I by size exclusion chromatography as described above. Fractions were manually collected as the blue dextran marker reached the base of the column and the radioactivity in each measured using a dose calibrator (Capintec, Model 15, Ramsey, NJ, USA) set for ^124I detection. Peak fractions were pooled for use in the study, and radiopurity was assessed as described above. […]

Data set [2] can be described thus: Solution stability (stated, unpublished data). The data set is classed as physicochemical. The settings on record: Wall and Kennel.
Data set [3] addresses synthetic amyloid fibrils of recombinant human λ6 light chain variable domain of patient Wil (rVλ6Wil) (human). The data set can be described thus: co-sedimentation; ex vivo amyloid binding assay: 25 µL of 1 mg/mL synthetic rVλ6Wil fibrils resuspended in 200 µL PBS with 0.05% Tween-20, ~5 ng 125I-p5+14 added, rotated at RT for 1 h, centrifuged twice at 15,000 x g; % of counts in the pellet.

Data set [4] shares this target. Description: co-sedimentation; peptide binding assay with rVλ6Wil fibrils in suspension in 10 mM phosphate buffer (pH 7.6) containing 0.15 (PBS), 0.25, 0.5, 1.0 or 2.0 M NaCl; bound peptide as % total counts added; n = 2.
For data set [5] the target is unchanged. Description: ELISA; EuLISA: rVλ6Wil fibrils coated and dried on NUNC Maxisorb wells (8 µg/mL, 50 µL, overnight 37 °C), blocked with 1% BSA; biotinylated p5+14 1 x 10^-10 to 1 x 10^-6 M, 1 h at 37 °C, PBS with 0.05% Tween 20; europium/streptavidin detection; n = 3. A general note: ELISA stands for enzyme-linked immunosorbent assay.

Take “GGGYSKAQKAQAKQAKQAQKAQKAQAKQAKQAQKAQKAQAKQAKQ [p5+14]”: the “time to clearance from healthy organs” value in data set [1] is listed as no more than 2 h. Besides, in data set [2], the “solution stability relative to p5” value is reported as “greater solution stability”.

B1: 125I-p5+14 (radioiodinated peptide p5+14) (peptide)
peptide: GGGY(125I)SKAQKAQAKQAKQAQKAQKAQAKQAKQAQKAQKAQAKQAKQ
On to B1, for which the % bound in data set [3] worked out at 95.7%. Further, in data set [4], the % bound at 2 M NaCl is 20%, the % bound at the lowest NaCl concentration (0.15 M) is 95% and the NaCl concentration at half-maximal loss of binding (printed as EC50) was found to be 1 M.

B2: biotinylated p5+14 (with a cysteine residue at the N-terminal) (peptide)
peptide: C(maleimide‑biotin)GGGYSKAQKAQAKQAKQAQKAQKAQAKQAKQAQKAQKAQAKQAKQ
On to B2, for which the 50% effective concentration (EC50) in data set [5] stood at 15 nM.
